Experiment: soluble on expression in E. coli; label from the status in PepcDB or PDB records

| Sequence | soluble on expression in E. coli |
| --- | --- |
| MSAISSFVLECAHAGRWVRGLMALQEQHLPAEPSMRVACVALAQAAAPHSWAAALCLLRPSDALRHPQEVCKTVDTIARHAQLPIDVFESSMEALLLSLQQLSQSKSHPASGSSRQLASIGPCEALGLATPSTPIQQQVFLSATQWCGWETAARLLACLPSPLPQACVERVQELRTLRHRILHDVGPFCHWGSRAALSSVIGSAGGPLPASAQGTSLAEQLERMEPSPARRYSARDRRELSWLRDHKRQRLLQRTREEEDMLTRQAAEDVAPSALSVCAALRAVTRLPSAASVTAPHVLCRHVLTLSQSRRLTPDIALLYGRAAGLCTPHSWEATVDTLNRAEVRDARLHRQLTTWVISRGSWRAALERLSQLHRDTSSAVPQRSGNNTGDLHRGGDAAASFDCVQRTAVPASYLHRVVPQVSRPWCRLVSSRHSTASLLRQIAGALAGGVRLDEVQLSEAGKEWAANGRWEAALALYYRFPLPEFQKYATRSLVTARPALPPVPSVSHPPSSCLQIGSDPLPGSPSKDSAMFYARTVLELLVPRDGVRYDSASPPRPAPPLGTYPACLVIDAAADWSEAVAVFRACVRRGTRCNPQLLSTLMRRQDLPPQELRQILKSYPAAVNDGVRRRAKEGFGVE | not soluble |
| MGSDKIHHHHHHMESMLKKICQDPVLQKDKDFLLFLTSDDFSSESKKRAFLTGSGAINDSNDLSEVRISEIQLLGAEDAAEVLKNGGIDAESHKGFMSISFSSLPKYNEADEFFIEKKQKIDELEDNLKKLSKSLEMVDTSRNTLAASTEEFSSMVETLASLNVSEPNSELLNNFADVHKSIKSSLERSSLQETLTMGVMLDDYIRSLASVKAIFNQRSKLGYFLVVIENDMNKKHSQLGKLGQNIHSEKFREMRKEFQTLERRYNLTKKQWQAVGDKIKDEFQGFSTDKIREFRNGMEISLEAAIESQKECIELWETFYQTNL | not soluble |
| PGRPTMMISTTAMNTALLQWHPPKELPGELLGYRLQYCRADEARPNTIDFGKDDQHFTVTGLHKGTTYIFRLAAKNRAGLGEEFEKEIRTPEDL | soluble |
| CVTGDTLVFTDKGLIEARKLEVGMKVWSGDGWNEIKEVINNGVKPVLKLKLKTGLEIKVTEEHKIFTGEGWKEAKDLKVGDKLYLPVSYPELDFPVKEENDFYEFLGYFLGDGSLSVSNHVSLHVGNDKELALYFKEKVEKYAGAAYLIERDGQYIIDVHRKEFAEKIKKIFGIEITDSKEKDIPSSLLAVNSEAMKALLRGLFSADGSVYDANGSITVALSSTSYPLLRKVQILLLSLGIPSTLTGEKDQDVKIIKGNEYETLPTYRLIISGERASLFFNKIGLIGEKKKKFLELMAGKTTYSTLNNHLYQEIVSIEPAGEEEVFDITAPPKYTWITNGILSLD | soluble |
| QDGGYSAREFMIFSSQPAEIADKIMKDLERGSTYINIEGAYKRTPGKAVYVVVDPSEVRQVREIIEEIDPKAFVSIRIVSEQLGEGFTYLRKKRSIFGR | not soluble |
| MRSDTSVEPEGANFIAEFFGHRVYPEVVSTEAARNDQATGTCPFLTAAKLVETSCVKAETSRGVCVVNTAVDNERYDWLVCPNRALDPLFMSAASRKLFGYGPTEPLQFIAAPTLADQAVRDGIREWLDRGVHVVAYFQEKLGGELSISKTDSSPEFSFDWTLAEVESIYPVPKIKRYGVLEIQTMDFHGSYKHAVGAIDIALVEGIDFHGWLPTPAGRAALSKKMEGPNLSNVFKRTFYQMAYKFALSGHQRCAGTGFAIPQSVWKSWLRHLANPTLIDNGDGTFSLGDTRNDSENAWIFVFELDPDTDASPRPLAPHLEIRVNVDTLIDLALRESPRAALGPSGPVATFTDKVEARMLRFWPKTRRRRSTTPGGQRGLFDA | soluble |
| AMGQTVTTPLSLTLGHWKDVERIAHNQSVDVKKRRWVTFCSAEWPTFNVGWPRDGTFNRDLITQVKIKVFSPGPHGHPDQVPYIVTWEALAFDPPPWVKP | soluble |
| PDSAVVRIHSSSGTTGKPVIIPYTRNDVDTWAELMMRCYMLAGLTNQDRIQITPGYGLWTAGIGFQLGAERLGAMAIPTGPGNTEKQLEMLVDLKTTALASTSSYALLLAEEIEKRGLKDRIHLRTGVIGSERWSEKMRSRIENELGIETFDIYGLTEIYGPGIALDCSYHEGMHYW | not soluble |
| MKFQWIGVLVFIGIVNCLISSQKLTVKENEERLKSCGNTFLPIPSINQTGKGFGFFNDKTYTYNSKSGWLLLAGHKNRSTRVYATAFPISEYHILISSRVMLTAEHKWIMNGKPFDKNNCSGGRHLDVPRDVLDNILFWYGKKPKKADISKARMFFACDNQDLKAYPVLIELNKTSKRPWAFNGVPCLADETTSSKLGDVVHFYGYSDYDLLHHKLLIKAVKDGGICTETYYTEEVGGPLVQNVSGKATVIGLKAPGSRENCELFYDLSKLQKEICDYSGVCGYEKPTLTTEPTPVTTEKSTVSTTISTSLETTIMQASSASPTSIKPSTTTEPSPLQASSKPATEPLLRPESTRRASSSASSKPEVQTTIPTEIRTSSLPTPFLKTSTTVTTTTPEPATVDYGDDHDMIGLDDEYGDESNKGVGKIDRIVGFFVLLLVIE | not soluble |
| SNAMIRNIVFDLGGVLIHLNREESIRRFKAIGVADIEEMLDPYLQKGLFLDLESGRKSEEEFRTELSRYIGKELTYQQVYDALLGFLEEISAEKFDYIDSLRPDYRLFLLSNTNPYVLDLAMSPRFLPSGRTLDSFFDKVYASCQMGKYKPNEDIFLEMIADSGMKPEETLFIDDGPANVATAERLGFHTYCPDNGENWIPAITRLLREQK | soluble |
| MTYDSEFGSHVSLYRDRIKQVIDDSLNEHLNSMILRVDLHDPIDTENMDNPFFQPRVDSGAISRFTSALKAKLKHDKHIKTQRKDWPDSRHSTLRYAWVREYTKNRKRHYHLILCFNQDAYYHLGDYDLNRNTLRTMITTAWYSALGIPIDSSGKLVNYPPNGKYLLNRKRDNFEQTYSDLMNRVDYMTKVRTKIVGDGDRNFGCSRG | soluble |
| PRVPSAGAAECKGEISNVQWKNDTNIKDGVFVGSYGQGADVQFDWKVDPGAKAGDQFTLKLPNELSRLGNKDLTLTAPSGEEVAKGTWDDVAKTWTFTLTDYANSHGDISGSAFFTVQWDRSVAQSNTQYPLTFSGCKGAGTLNGKTPEEGVGGTAQATSKTGLYDSKTDSARWNIYVETADTDIYTPVVVKDIGNTQLLFRCSDVKVFDRTPYPHTKIRDTPIDPNRWKCEEKDGGIIVSMVPDEHGRYLTAGQSLTIGFETPINDDTSRFITNKAIVEISPNKIENVEYSVDRGDAGGVGQGFQGKIKIQKEVVGETAPVQGNKFDFEYKCGETTQNISVAAGQTSDIFTQRSSSTCSITEKNVAEGVTVDFEVIDEETGKPAYVVPIDNGVTVKFNKNSSTTLNVKVTNTYPNKPEAKKGKFVIKKTVNGLDAGQKDKAFKFNYTCKAPDGDAYTEPQLAEVTAGRTWQSGNYPEGTICTIEEDLESAKVPGYSLISAQPKGDVTIKAEGTEGSPVEFAATNSYTKDLGSFSVQKKIEASAEAMPLLKDQEFGFKYTCGADKGEFKLKNGETKKVERIATGTKCTVEESDAKVPNGFMWTGKIEGTDLDPNDFTIVKDKTLAFTATNTYKQQYGGFTLSKNVTGDATNLEELQKRSYTFNYTCTAPTGTVLKDKVEITEETPKAIGNIPAASTCKVTEVEAPAKDTDWTVDLSVNGTWVGETAEFKVPAEGEPSISILAKNNYRQHKGSFTIEKIVDASEGIVTPKEFTFTWQCGEDKGAETVRVTNGKGRVEIDRAFPVGTKCSVKELEAEAEDARLITSWENQEFTIDKDKQHVIVSATNTYRYAESKVKIVKKLEGPAKDKAKDKTFTFDYSCVVNNEAIEGSVNITGEGATEIPESFPAGTKCTITERDASISGTTWTHRIAEDGQITIQSPAKVYQVGVTNAYSKPGFP | not soluble |
| GPLGSMEPPLPVGAQPLATVEGMEMKGPLREPCALTLAQRNGQYELIIQLHEKEQHVQDIIPINSHFRCVQEAEETLLIDIASNSGCKIRVQGDWIRERRFEIPDEEHCLKFLSAVLAAQKAQS | soluble |

Source: the DeepSol protein solubility set
